{"source": "patent US20070031849A1", "about": "“Three-dimensional structure of DNA recombination/repair protein and use thereof” (priority 2001, published 2007)", "molecules": {"B1": {"name": "R55A: point mutant of HsRad521-212, arginine at position 55 substituted with alanine (protein)", "chain": "MSGTEEAILGGRDSHPAAGGGSVLCFGQCQYTAEEYQAIQKALRQRLGPEYISSAMAGGGQKVCYIEGHRVINLANEMFGYNGWAHSITQQNVDFVDLNNGKFYVGVCAFVRVQLKDGSYHEDVGYGVSEGLKSKALSLEKARKEAVTDGLKRALRSFGNALGNCILDKDYLRSLNKLPRQLPLEVDLTKAKRQDLEPSVEEARYNSCRPNMALGHPQLQQVTSPSRPSHAVIPADQDCSSRSLSSSAVESEATHQRKLRQKQLQQQFRERMEKQQVRVSTPSAEKSEAAPPAPPVTHSTPVTVSEPLLEKDFLAGVTQELIKTLEDNSEKWAVTPDAGDGVVKPSSRADPAQTSDTLALNNQMVTQNRTPHSVCHQKPQAKSGSWDLQTYSADQRTTGNWESHRKSQDMKKRKYDPS"}, "B2": {"name": "H69A: point mutant of HsRad521-212, histidine at position 69 substituted with alanine (protein)", "chain": "B1 chain with A55R, H69A"}, "B3": {"name": "R70A: point mutant of HsRad521-212, arginine at position 70 substituted with alanine (protein)", "chain": "B1 chain with A55R, R70A"}, "B4": {"name": "Y65A: point mutant of HsRad521-212, tyrosine at position 65 substituted with alanine (protein)", "chain": "B1 chain with A55R, Y65A"}}, "note": "Numbering of substitutions follows the chain as printed. Numbers in names are those of the source."}
{"biological_target": "T1, HsRad52 protein (HsRad521-212) (Homo sapiens, UniProt P43351)", "T1 construct": "hexahistidine (N, cleaved yes); made in house; host or cells: E. coli JM109 (DE3), pET15-b", "T1 sequence (P43351 1-212)": "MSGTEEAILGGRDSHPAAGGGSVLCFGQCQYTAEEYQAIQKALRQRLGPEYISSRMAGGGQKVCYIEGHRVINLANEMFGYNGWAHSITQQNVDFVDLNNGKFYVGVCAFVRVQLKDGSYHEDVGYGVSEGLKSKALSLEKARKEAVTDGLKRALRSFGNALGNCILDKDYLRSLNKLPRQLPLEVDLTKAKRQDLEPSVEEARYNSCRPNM", "assay": "Screening for HsRad52-binding compounds by one-dimensional 1H-NMR", "conditions": "calculated from signal intensity of the NMR spectrum; binding force of Compound A defined as 1", "protocol": "Among the ligand candidate compounds obtained in Example 8, one candidate compound was in view of the binding free energy change (ΔG) obtained by AutoDock and solubility. The compound was dissolved in DMSO-d6 to be adjusted to 455.7 μM. The HsRad521-212 protein prepared in Example 3 was dissolved to 152 μM using buffer solution A (dissolved in heavy water to 10 mM Tris-dll, pH 7.5)/200 mM KCl). Using them, two types of samples namely the ligand candidate compound alone and the ligand candidate compound to which the HsRad52 protein was added at 1:1 were prepared.\nThe final concentration of the ligand candidate compound is 21.7 μM.\nThe final concentrations of the ligand candidate compound and the HsRad52 protein are 21.7 μM, respectively.\nOne-dimensional ^1H-NMR of the individual samples was measured, to observe whether or not any change existed between prior to and after the addition of HsRad52 protein. Consequently, the NMR spectrum of a sample of ID AK968-41170131 with a chemical name of cis-6-[4-(4-isobutyl-phenyl)-5-methyl-thiazol-2-ylcarbamoyl]-3,4-dimethyl-cyclohex-3-enec arboxylic acid (Compound A, −11.71 kcal/mol) as such ligand candidate compound is shown in FIGS. 5 through 7. […] In FIG. 6, a slight increase of the base line due to the mixing with the protein can be observed, but apparently, Compound A-derived two signals around 7.5 ppm disappeared.\nHerein, all the NMR spectra were taken in deuterium, using Bruker DRX500 NMR spectrophotometer at 298 K.\nUsing such method, the plural ligand candidate compounds obtained in Example 8 were adjusted to various concentrations to measure the NMR spectra. Compounds detected with the interaction with HsRad52 are shown below in Table 4. Herein, the strength of a binding force relatively calculated from the signal intensity of the NMR spectrum is shown as relative binding force, provided that the binding force of the Compound A is defined as 1."}
{"molecule": "CCCCc1ccc(-c2nc(NC(=O)C3C4CCC(O4)C3C(=O)O)sc2C)cc1", "note": "(stereo not drawn) [C, 3-[4-(4-Butyl-phenyl)-5-methyl-thiazol-2-ylcarbamoyl]-7-oxa-bicyclo[2.2.1]heptane-2-carboxylic acid]", "Relative Binding force": 0.5}
{"molecule": "CC1=C(C)CC(C(=O)Nc2nc(-c3ccc(C)cc3C)c(C)s2)C(C(=O)O)C1", "note": "(stereo not drawn) [D, 6-[4-(2,4-Dimethyl-phenyl)-5-methyl-thiazol-2-ylcarbamoyl]-3,4-dimethyl-cyclohex-3-enecarboxylic acid]", "Relative Binding force": 0.2}
{"molecule": "CCCc1ccc(-c2nc(NC(=O)C3CC(C)=C(C)CC3C(=O)O)sc2C)cc1", "note": "(stereo not drawn) [E, 3,4-Dimethyl-6-[5-methyl-4-(4-propyl-phenyl)-thiazol-2-ylcarbamoyl]-cyclohex-3-enecarboxylic acid]", "Relative Binding force": 0.5}
{"molecule": "CC1=C(C)CC(C(=O)Nc2nc(-c3ccc(C(C)C)cc3)c(C)s2)C(C(=O)O)C1", "note": "(stereo not drawn) [Compound B, 6-[4-(4-Isopropyl-phenyl)-5-methyl-thiazol-2-ylcarbamoyl]-3,4-dimethyl-cyclohex-3-enecarboxylic acid]", "Relative Binding force": 0.5}
{"test_system": "SAT-1 single-stranded DNA", "assay": "Gel shift assay: single-stranded DNA binding of HsRad521-212 point mutants", "conditions": "0.25 to 2 μM mutant; compared with wild type HsRad521-212", "protocol": "The single-stranded and double-stranded DNAs binding activities of the six types of point mutants thus prepared from HsRad521-212 were detected by gel shift assay method. The substrate DNA used by the method was prepared as described below. The pGsat4 of double-stranded DNA was prepared by inserting a 198-bp DNA fragment from human α-satellite into a plasmid PGEM-T East vector (manufactured by Promega). The 3.2-kb plasmid DNA was prepared by a gentle lysis method using sarcosyl, without alkali modification of the host E. coli, so as to avoid the irreversible denaturation. As the single-stranded DNA, a 50-base oligonucleotide purified by HPLC as shown in SEQ ID NO:2 was purchased from Roche Biochemical.\nThe 5′ terminus of the oligonucleotide was labeled with radioactivity in the presence of [γ^32P] ATP using T4 polynucleotide kinase (New England Biolabs) and then purified on a column Chromaspin-10 (manufactured by Clontech).\nFor gel shift assay, a reaction mixtures containing final concentratins of 50 mM Hepes-KOH (pH 7.5), 40 mM KCl, 1 mM MgCl2, 0.1 mg/ml BSA, 1 mM DTT, 2% glycerol and 0.25 to 2 μM mutants of HsRad521-212 was used. For single-stranded DNA binding assay, 1 μl of 1 μM ^32P-labeled SAT-1 single-stranded DNA (nucleotide) was mixed with 9 μl of the reaction mixture, which was incubated at 37° C. for 5 minutes. Subsequently, 1 μl of 12% […] solution was added, to immobilize HsRad52 and the single-stranded DNA. After incubating for 20 minutes, a 6-fold volume of staining solution for electrophoresis was added. The reaction mixture was resolved by 1% agarose gel electrophoresis in 0.5×TBE buffer at 3.3 V/cm and ambient temperature. After electrophoresis, the gel was dried for detection by autoradiography. The amount of the free single-stranded DNA was assayed by an image analyzer BAS2500 manufactured by Fuji Film. […] Compared with the wild type HsRad521-212, the single-stranded DNA binding activity of all of the point mutants was lowered."}
{"molecule": "B1", "Single-stranded DNA binding activity": "lost most of the binding activity to the single-stranded DNA"}
{"molecule": "B2", "Single-stranded DNA binding activity": "lost most of the binding activity to the single-stranded DNA"}
{"molecule": "B3", "Single-stranded DNA binding activity": "lost most of the binding activity to the single-stranded DNA"}
{"molecule": "B4", "Single-stranded DNA binding activity": "lost most of the binding activity to the single-stranded DNA"}
{"biological_target": "T2, HsRad52(1-212) wild type (Homo sapiens, UniProt P43351 SEQ:1-212)", "T2 sequence": "T1 sequence (P43351 1-212)", "assay": "EMSA; 50 mM Hepes-KOH pH 7.5, 40 mM KCl, 1 mM MgCl2, 37 C, glutaraldehyde fixed; 0.25-2 uM protein; complex formation inhibited by Compound A", "conditions": "tags: His6 removed by thrombin; chain copies: 11 (undecameric ring, stated); label: 5'-32P", "method": "For gel shift assay, a reaction mixtures containing final concentratins of 50 mM Hepes-KOH (pH 7.5), 40 mM KCl, 1 mM MgCl₂, 0.1 mg/ml BSA, 1 mM DTT, 2% glycerol and 0.25 to 2 μM mutants of HsRad52₁₋₂₁₂ was used. For single-stranded DNA binding assay, 1 μl of 1 μM ³²P-labeled SAT-1 single-stranded DNA (nucleotide) was mixed with 9 μl of the reaction mixture, which was incubated at 37° C. for 5 minutes. Subsequently, 1 μl of 12% glyceraldehyde solution was added, to immobilize HsRad52 and the single-stranded DNA. After incubating for 20 minutes, a 6-fold volume of staining solution for electrophoresis was added. The reaction mixture was resolved by 1% agarose gel electrophoresis in 0.5×TBE buffer at 3.3 V/cm and ambient temperature. After electrophoresis, the gel was dried for detection by autoradiography. The amount of the free single-stranded DNA was assayed by an image analyzer BAS2500 manufactured by Fuji Film.\nSubsequently, the mixture was fixed with 0.2% glutaraldehyde for 20 minutes and electrophoresed on 1% agarose gel."}
{"molecule": "ATTTCATGCTAGACAGAAGAATTCTCAGTAACTTCTTTGTGCTGTGTGTA (ssDNA)", "note": "[SAT-1 50-mer]", "binding result": "binds"}
